Experiments:
U10-25* ssDNA substrate = assay: Uracil excision assay, RPA-coated versus naked ssDNA; format: biochemical; settings: 1 μM RPA, 100 nM U10-25* ssDNA; 10 min, 22°C; three independent experiments
Description: (§1) 3′-FAM-labelled, PAGE-purified oligonucleotide substrates were from Sigma-Aldrich. Unless otherwise indicated, the substrate (25 nt) harboured uracil at position 10 in a polyC sequence to avoid secondary structures (U10-25*: […]-FAM). Double-stranded substrate was generated by annealing (heating followed by slow cooling) U10-25* to a non-labelled complementary oligo (A16-25: […]). All assays were performed at 22°C in 10 mM Tris–HCl pH 7.5, 50 mM NaCl, 1 mM DTT, 0.1 mM EDTA, 0.5 mg/ml BSA.
(§2) Varying amounts of UNG were then added, and the mixtures incubated for 10 min in a water bath. To avoid unspecific interactions and binding of enzyme and DNA to the assay tube surface, low-DNA binding tubes and excess of BSA was used in all reactions. Reactions were quenched and AP sites cleaved in 10% piperidine at 90°C for 20 min. Samples were dried by vacuum centrifugation and suspended in formamide-containing loading buffer. Product and substrate were separated in 12% PAGE/7M urea–0.5× TBE gels, bands visualised in ChemiDoc™ Imager (Bio-Rad) and quantified by Image Lab software (Bio-Rad). Importantly, all assays in which two parameters were compared (e.g. RPA-coated versus naked substrate or WT versus mutated protein) were performed in parallel with the exact same DNA/protein dilutions.

U10-25* dsDNA substrate = assay: Uracil excision assay, dsDNA preincubated with RPA-WT or RPA-ΔWH; format: biochemical; settings: 100 nM U10-25* dsDNA
Description: as §1, §2

B1: UNG-CD: catalytic UNG domain, starting at UNG2 aa 93, lacking the N-terminal RPA-binding helix (protein)
chain: GFGESWKKHLSGEFGKPYFIKLMGFVAEERKHYTVYPPPHQVFTWTQMCDIKDVKVVILGQDPYHGPNQAHGLCFSVQRPVPPPPSLENIYKELSTDIEDFVHPGHGDLSGWAKQGVLLLNAVLTVRAHQANSHKERGWEQFTDAVVSWLNQNSNGLVFLLWGSYAQKKGSAIDRKRHHVLQTAHPSPLSVYRGFFGCRHFSKTNELLQKSGKKPIDWKEL
With B1 the “fold reduced activity with RPA-coated ssDNA compared to naked DNA substrate” value (U10-25* ssDNA substrate) was 1000 fold, the “fold increased enzyme concentration to convert similar amounts of substrate in presence of RPA-WT” value (U10-25* dsDNA substrate; 500 nM RPA-WT) was roughly 200 fold and the “fold increased enzyme concentration to convert similar amounts of substrate in presence of RPA-ΔWH” value (U10-25* dsDNA substrate; 500 nM RPA-ΔWH) was roughly 50 fold.

Reference: publication PMC8053108, “RPA2 winged-helix domain facilitates UNG-mediated removal of uracil from ssDNA; implications for repair of mutagenic uracil at the replication fork” (Nucleic Acids Research, 2021)
